“Also recorded” adds a separate entry of the source.
Experiments:
[1] = molecular target: T1, Human CD39-L3 (NTPDase3, ENTPD3) (Homo sapiens, UniProt O75355); experiment: ELISA titration on CD39-L3; type: binding
T1 sequence (O75355 1-529): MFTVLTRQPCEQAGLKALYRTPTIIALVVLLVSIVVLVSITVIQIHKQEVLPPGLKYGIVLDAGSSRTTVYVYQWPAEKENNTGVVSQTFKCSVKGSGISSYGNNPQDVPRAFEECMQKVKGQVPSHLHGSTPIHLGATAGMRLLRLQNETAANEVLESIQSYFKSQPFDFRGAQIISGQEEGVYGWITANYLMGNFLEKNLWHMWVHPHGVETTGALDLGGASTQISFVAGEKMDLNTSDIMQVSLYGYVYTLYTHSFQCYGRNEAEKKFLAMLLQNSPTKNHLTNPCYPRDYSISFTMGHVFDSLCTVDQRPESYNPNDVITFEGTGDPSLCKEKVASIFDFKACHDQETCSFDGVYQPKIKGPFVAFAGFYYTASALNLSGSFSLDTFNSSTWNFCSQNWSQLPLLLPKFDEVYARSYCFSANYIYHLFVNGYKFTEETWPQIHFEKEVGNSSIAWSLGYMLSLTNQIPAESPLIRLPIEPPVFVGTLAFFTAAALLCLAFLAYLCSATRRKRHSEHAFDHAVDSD
Description: Wells were washed in TBS Tween 20, and further saturated 2H at RT in TBS Blocking buffer. Dose range concentration of primary antibody was incubated in TBS blocking buffer for 2h at RT. Wells were washed in TBS Tween 20. […] Optical density was measured on Enspire™ at OD=450.

[2] = test system: cynomolgus CD39 (CHO-cyCD39); experiment: Inhibition of cellular CD39 ATPase activity in CHO-cyCD39 cells; type: cell-based, cynomolgus (Macaca fascicularis)
Description: (§1) The inhibition of the CD39 enzymatic activity in CD39-expressing cells by antibodies was evaluated using Cell Titer Glo™ (Promega, reference G7571) that allows assessment of ATP hydrolysis through use of a reagent that generates a luminescent signal proportional to the amount of ATP present. The assay was thus designed to permit assessment of the inhibition of ATP hydrolyzed by CD39 in the cell culture supernatant. Briefly, 5×10^4 Ramos human lymphoma cells, 5×10^3 human CD39-, cynomolgus CD39—and mouse CD39-expressing CHO cells, were incubated 1 hour at 37° C. with anti-CD39 antibodies from 30 μg/ml to 5×10^−4 μg/ml. Cells were then incubated with 20 μM ATP for 1 additional hour at 37° C. Plates were centrifuged for 2 min at 400 g and 50 μl cell supernatant are transferred in a luminescence microplate (white wells). 50 μl CellTiter-Glo® Reagent (CTG) was added to the supernatant and emitted light was quantified after a 5 min incubation in the dark using a Enspire™ luminometer. Anti-CD39 antibody efficacy was determined by comparing emitted light in presence of antibody with ATP alone (maximal light emission) and ATP together with cells (minimal light emission).

[3] = molecular target: T2, CD39 expressed by Ramos human lymphoma cells (Homo sapiens, UniProt P49961); experiment: Inhibition of cellular CD39 ATPase activity in Ramos cells; type: cell-based
T2 construct: host or cells: Ramos human lymphoma cells
T2 sequence (P49961 1-510): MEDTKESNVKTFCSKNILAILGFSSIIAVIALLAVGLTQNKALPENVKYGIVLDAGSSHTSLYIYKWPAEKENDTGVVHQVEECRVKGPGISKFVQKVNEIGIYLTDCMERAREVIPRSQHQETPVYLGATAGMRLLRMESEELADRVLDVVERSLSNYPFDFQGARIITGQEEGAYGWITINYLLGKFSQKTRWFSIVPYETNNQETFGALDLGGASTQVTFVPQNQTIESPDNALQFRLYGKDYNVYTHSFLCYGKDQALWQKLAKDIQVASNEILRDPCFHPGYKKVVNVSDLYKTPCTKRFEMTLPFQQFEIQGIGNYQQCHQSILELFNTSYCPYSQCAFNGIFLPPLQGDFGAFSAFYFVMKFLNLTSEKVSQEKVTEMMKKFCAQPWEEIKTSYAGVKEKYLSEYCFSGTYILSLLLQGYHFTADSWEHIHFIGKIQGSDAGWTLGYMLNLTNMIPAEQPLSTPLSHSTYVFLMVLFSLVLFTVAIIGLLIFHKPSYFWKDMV
Description: as §1

binding to CD39-L3 in ELISA [1]: not to any of the human isoforms
blocking CD39 enzymatic activity in tumor (Ramos) cells [3]: highly potent
potency in Ramos cells compared to all other antibodies tested [3]: greater potency
maximum inhibition achieved, cellular CD39 ([3]; Ramos cells): 81.6%
B1: I-394: anti-CD39 antibody, VH SEQ ID NO: 6, VL SEQ ID NO: 7; heavy/light chains SEQ ID NOS: 52 and 53 (antibody)
heavy: EVQLQQSGPELVKPGASVKMSCKASGYTFTDYNMHWVKQSHGRTLEWIGYIVPLNGGSTFNQKFKGRATLTVNTSSRTAYMELRSLTSEDSAAYYCARGGTRFAYWGQGTLVTVSAASTKGPSVFPLAPSSKSTSGGTAALGCLVKDYFPEPVTVSWNSGALTSGVHTFPAVLQSSGLYSLSSVVTVPSSSLGTQTYICNVNHKPSNTKVDKRVEPKSCDKTHTCPPCPAPEAEGAPSVFLFPPKPKDTLMISRTPEVTCVVVDVSHEDPEVKFNWYVDGVEVHNAKTKPREEQYNSTYRVVSVLTVLHQDWLNGKEYKCKVSNKALPSSIEKTISKAKGQPREPQVYTLPPSREEMTKNQVSLTCLVKGFYPSDIAVEWESNGQPENNYKTTPPVLDSDGSFFLYSKLTVDKSRWQQGNVFSCSVMHEALHNHYTQKSLSLSPGK
light: DIVLTQSPASLAVSLGQRATISCRASESVDNFGVSFMYWFQQKPGQPPNLLIYGASNQGSGVPARFRGSGSGTDFSLNIHPMEADDTAMYFCQQTKEVPYTFGGGTKLEIKRTVAAPSVFIFPPSDEQLKSGTASVVCLLNNFYPREAKVQWKVDNALQSGNSQESVTEQDSKDSTYSLSSTLTLSKADYEKHKVYACEVTHQGLSSPVTKSFNRGEC
modifications: Chimeric homo sapiens mus musculus
blocking CD39 enzymatic activity in cells expressing cynomolgus CD39 [2]: blocks; also recorded: highly potent

— patent US20230099801A1, “RESTORATION OF T CELL ACTIVITY VIA THE CD39/CD73 AXIS” (INNATE PHARMA, priority 2017, published 2023)
